The text below walks through data of article PMC3859580, “The PS1 Hairpin of Mcm3 Is Essential for Viability and for DNA Unwinding In Vitro”.

The target in the data set is Mcm2-7 complex (wild type) (Saccharomyces cerevisiae, UniProt P29469;P24279;P30665;P29496;P53091;P38132 1-868;1-971;1-933;1-775;1-1017;1-845). As to the kind of experiment: EMSA; 5 mM ATP, 10 mM Mg acetate; 50-400 nM complex, 1 nM DNA; shifted band diminished by anti-Mcm7; EMSA: 20 mM Tris-HCl pH 7.5, 10 mM Mg acetate, 100 uM EDTA, 5 mM DTT, 5 mM ATP, 37 C, 10 min; 5% native TBE gel with 5% glycerol, 0.1% NP-40, 10 mM Mg acetate. The note with it: protein: recombinant; copies: 1;1;1;1;1;1; label: 5'-32P; single strand.

B1: 90-base ssDNA oligonucleotide with (T)60 tail (ssDNA)
DNA: ATGTCCTAGCAAGCCAGAATTCGGCAGCGTCTTTTTTTTTTTTTTTTTTTTTTTTTTTTTTTTTTTTTTTTTTTTTTTTTTTTTTTTTTTT
As to B1, the binding result is “binds”.
